Results on two molecules are retold here after patent US20160207963A1 (GlaxoSmithKline, published 2016).

Test [1] addresses purified, his-tag depleted, recombinant Viet04 HA trimers (influenza A virus A/Vietnam/1203/04 …, UniProt Q6J8F6 17-531). The test can be described thus: complex formation, size exclusion gel filtration (Superdex 200). (In general: SEC sorts molecules by how far they enter the pores of the column.)
The target in test [2] is Vietnam Wt (HA1) (influenza A virus A/Vietnam/1203/04 …, UniProt Q6J8F6 17-346). In words: biolayer interferometry (ForteBio), HA1 on biosensors probed with IgG 10 µg/ml. (In general: Biolayer interferometry detects binding as a change in optical thickness at a sensor tip.)

B1: 1A2 Fab (Fab, V domains shown)
VH: EVQLQQSGPELVKPGASVKMSCKASGYTFTSFIMYWVKQKPGQGLEWLGYIDPYNDGTKYNEKFEGKATLTSDKSSSTAYMELSSLTSEDSAVYYCAKRGNYGNGFAYWGQGTLVTVSA
VL: DIVMTQSQKFVSTSVGDRVSVTCKASQNVGSNVAWYQHKPGHSPTALIYSASHRYSGVPDRFTGSESGTDFTLTISNVQSEDLAEYFCQQYYSYPYTFGGGTKLEIKR
B1: in test [1], the binding result was “binds”.

B2: mouse IgG 1A2 (antibody, V domains shown)
VH: B1 VH
VL: B1 VL
Take B2: in test [2], the binding result is on record as “binds”.
